Source: publication PMC9364032, “RNA induces unique tau strains and stabilizes Alzheimer’s disease seeds”

Experiments:
Settings in all cases: protein: recombinant; single strand
[1] = target: T1, tau 2N4R full-length monomer, WT (UniProt P10636-8 1-441); assay: BLI; apparent Kd, 2:1 model; kon 2.8e4 M-1 s-1, koff 3.4e-4 s-1; mean of 3; BLI (Octet, AR2G sensors, tau immobilized), nucleic acid 0.13-41 uM; buffer, salt, pH and temperature not given in the material
[2] = target: T1, tau 2N4R full-length monomer, WT; assay: BLI; apparent Kd, 2:1 model; kon 1.7e3 M-1 s-1, koff 4.2e-4 s-1; mean of 3; BLI (Octet, AR2G sensors, tau immobilized), nucleic acid 0.13-41 uM; buffer, salt, pH and temperature not given in the material
[3] = target: T1, tau 2N4R full-length monomer, WT; assay: BLI; apparent Kd, 2:1 model; kon 1.0e4 M-1 s-1, koff 1.4e-4 s-1; mean of 3; BLI (Octet, AR2G sensors, tau immobilized), nucleic acid 0.13-41 uM; buffer, salt, pH and temperature not given in the material

T1 sequence (P10636 other isoform, or with tags, fused parts or gaps): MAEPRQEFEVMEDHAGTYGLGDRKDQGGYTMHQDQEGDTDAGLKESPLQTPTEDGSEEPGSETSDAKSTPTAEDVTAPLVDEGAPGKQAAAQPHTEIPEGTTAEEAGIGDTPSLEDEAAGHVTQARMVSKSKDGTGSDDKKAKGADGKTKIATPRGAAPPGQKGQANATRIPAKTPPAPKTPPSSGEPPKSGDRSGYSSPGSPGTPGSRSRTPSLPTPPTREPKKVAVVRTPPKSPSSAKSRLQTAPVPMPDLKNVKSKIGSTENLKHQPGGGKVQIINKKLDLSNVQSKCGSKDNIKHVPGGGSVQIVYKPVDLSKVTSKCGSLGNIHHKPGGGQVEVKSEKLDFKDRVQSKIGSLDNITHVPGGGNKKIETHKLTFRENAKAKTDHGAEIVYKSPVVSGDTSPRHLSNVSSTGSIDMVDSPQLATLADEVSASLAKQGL

For GTTAAGTCCCGAACTAGATGTGACCTAACGGTAAGAGAAT (ssDNA) [ssDNA Seq1 (random 40-mer)], the Kd [1] was 12 nM.

UUUUUUUUUUUUUUUUUUUUUUUUUUUUUUUUUUUUUUUU (ssRNA) [PolyU 40-mer RNA] showed a Kd [2] of 254 nM.

AAAAAAAAAAAAAAAAAAAAAAAAAAAAAAAAAAAAAAAA (ssRNA) [PolyA 40-mer RNA] was tested, and the Kd [3] was 20 nM.
